From the DeepSol protein solubility set

assay: soluble on expression in E. coli; label from the status in PepcDB or PDB records

| Sequence | soluble on expression in E. coli |
| --- | --- |
| MPNLPQKAQQRQPQEHKSRHKATDDTEAPKQQQQQQQQQQSFDVATNANGSSLPASRVKNPEEPGGKSPLVPMRQHHSKVTRPPPPPTLFLENSLLQRQFANPISYLGGPRLQPRSNRTSIDSILSLDLEHHHHHH | not soluble |
| MNESERKIVEEFQKETGINFKNEELLFRALCHSSYANEQNQAGRKDVESNEKLEFLGDAVLELFVCEILYKKYPEAEVGDLARVKSAAASEEVLAMVSRKMNLGKFLFLGKGEEKTGGRDRDSILADAFEALLAAIYLDQGYEKIKELFEQEFEFYIEKIMK | not soluble |
| MLRDKSVNLDDGDPFTIALFGVDSNAERNANGGGQRSDTIMVLSVNPEKKTTEIVSIPRDTQADIVGKGTTEKINHAYAYGGPDMAVKSLEKLLNVPIDHYATIDMDGMQDMIDTVGGITVTSNATFSYDGYQFTEGERSKMDGKEAMAFIRSRKEDGAGGDFGRQERQQLVIQGLANKLTSVSSITHFNSLMNHVEDNVKTDLSVGELNKVRSNYKDANDNVNRHQLEGQGGIQDDGLYYFVPSENSLNEIETNVKDNLGILEHHHHHH | soluble |
| MDKIVIKGGNKLTGEVKVEGAKNAVLPILTASLLASDKPSKLVNVPALSDVETINNVLTTLNADVTYKKDENAVVVDATKTLNEEAPYEYVSKMRASILVMGPLLARLGHAIVALPGGCAIGSRPIEQHIKGFEALGAEIHLENGNIYANAKDGLKGTSIHLDFPSVGATQNIIMAASLAKGKTLIENAAKEPEIVDLANYINEMGGRITGAGTDTITINGVESLHGVEHAIIPDRIEAGTLLIAGAITRGDIFVRGAIKEHMASLVYKLEEMGVELDYQEDGIRVRAEGELQPVDIKTLPHPGFPTDMQSQMMALLLTANGHKVVTETVFENRFMHVAEFKRMNANINVEGRSAKLEGKSQLQGAQVKATDLRAAAALILAGLVADGKTSVTELTHLDRGYVDLHGKLKQLGADIERIND | not soluble |
| LKVREDENNPFYFRSSNSFQTLFENQNGRIRLLQRFNKRSPQLENLRDYRIVQFQSKPNTILLPHHADADFLLFVLSGRAILTLVNNDDRDSYNLHPGDAQRIPAGTTYYLVNPHDHQNLKMIWLAIPVNKPGRYDDFFLSSTQAQQSYLQGFSHNILETSFHSEFEEINRVLFGEEEEQRQQEGVIVELSKEQIRQLSRRAKSSSRKTISSEDEPFNLRSRNPIYSNNFGKFFEITPEKNPQLRDLDIFLSSVDINEGALLLPHFNSKAIVILVINEGDANIELVGIKEQQQKQKQEEEPLEVQRYRAELSEDDVFVIPAAYPFVVNATSNLNFLAFGINAENNQRNFLAGEKDNVVRQIERQVQELAFPGSAQDVERLLKKQRESYFVDAQPQQKEEGSKGRKGPFPSILGALY | soluble |
| MKPPFEQALGIIRQLKRHGYEAYFVGGAVRDLLIGRPIGDVDIATSALPEEVMRLFPKTIDVGSKHGTVVVVHEGTAYEVTTFRTDGDYEDHRRPESVTFVRSLEEDLKRRDFTMNAIAMDERGTIIDPFGGQEAIERRLICTVGAADERFREDALRMMRAVRFVSQLGFALAEDTKSAIVQNAPLMAHISVERMTMEMEKLLAGPFVAEALPLLADTGLFAYLPGLAAKEQLLRSAAAFRWPWLTKREERWALLCRALDVKDIRPFLRAWKLPNKVIDEAGAILAALDDVPRPEAWTNEQLFSAGLERALSVEAVRAALCGAPSEPHHEELRRRFAALPIKTKGELAVNGKDVIRWAGKPAGPWVKETLDAIWRAVVSSEVENEKERIYAWLMERNRTHEKNC | not soluble |
| MWYGLGLAFLGGIFRIFPFDMEHTITRQIFCPWLFAFSMTRKQFQGRKPYNYLASFLLFQCRLKESFHGQLVKPIVSWNLWTHRYHNGCFR | not soluble |
| MIELKGISQHFRGAGGTDVHALRDVDLSIDKGEIFGIIGRSGAGKSTLVRVINLLNRPTSGTVTVAGQSLTALNADGLRQARRKIGMIFQHFNLLSSRTVYDNVALPLELAGTPRERIREIVLPLLELVGLDAHKDRYPAQISGGQKQRVGIARALASQPDVLLSDEATSALDPETTRSILDLLRKINRELGLTIVLITHQMEVIKQVCDRVAVLDAGRVVELGRVIDVFLKPRHDVTRALIGEVISQELPPSVLARVESRLVAARERGGRDHLFRLAFTGAGVDQPVLAQAIRNYGLDFNILHGHIDEIQGQAFGSLAILASGESADIDNAMHFLREQGVVVEEINHVVLEHHHHHH | not soluble |
| MKKRKPMDYKTRIIYALLKSRLKTIDTYASRAEEIQDRQLRRILSSAAYTSTGIRYGFNRISSKECFARNVPVRDYESTQAEIERMLRGEKDVLCPGRCTWFAKSSGTTNSKSKFIPVPYRHLHYCHYQGGKDSLSLYLRNRPDSRFFTTKGLVLGGSHAPVSMNADIQVGDLSAILVENMPVLGNCMRVPSKETLLMDEWTEKLKAVVREVAHVRVGSLSGVPSWILVLIKDVLAATGRETLSDVWPELEVFFHGGISFAPYRAQYEKLIPSSRMQYMETYNASEGFFGIQDDPKDSGMLLMLDYGVYYEFIPMEHFGRPEAEAIPLEGVEKGRNYAMIISTLGGLYRYVLGDTVRFTSVKPYKIVITGRTKHYINAFGEELMVDNSDKALAATCKRFGVQAVDYTVAPHFFSEEGKGRHDWLIEFVSAPADPNAFAKALDAELQTLNSDYEAKRYADMTLLPLSLTIARSGLFHDWLTEQGKLGGQHKVPRLSNTPEIMRSILEMNSAAALEHHHHHH | not soluble |
| MGSDKIHHHHHHMWSHQSWQDSVYGHQTKATERLAHYAHIFNSVEGNTSFYATPAPQTVLNWHSATPDNFRFTFKLPQRITHQKQLQDCNQDLRDFFHIMAPLIEKTGIWKIQLPAHFGPEQLPVLARFLDHVPQGLTYGVEVRHFAFFAKGDAERTLNRLLIDKKVNRIIMDSRPVFALPPFNETIIDAHKKKPRVPVHPIATANNPVVRFIGQADGTLALLTQLGTTALPKDNDAFFTHWLKQLTLWLNEGREPYLFIHTPDNQTAPELAARLYRKLQLHIAEHIQLADIKLLEKKAEEKSAQMGLDW | not soluble |
| MSLRTLPAIVMMTLYALAGLAHAQQPPWRVGFCQDTLDIPWRAAQAMTFSQTLQTDKRFQVILSDAKGNTTQQAIDLEHMVERGVHVLVTSPRDGAVLTPVISNIYRQGVPVVLLSRRTLDENFTTFIAPDDAEIGRQAARYLSKRLNEKGKILVIQGLGSASTTQQRTVGFIQELSLHPHMQIVAQPFANYKKEMAILIMESILAQKLPFDAIYVHSDAMALGAILALKRAGIDPTKLPIVSIDYTRAGRESLRKGEIDAIFTYPNGVKQGITAVKRILAGQPVNKFQTVPSTLVTQENINTLEPVEGHHHHHH | soluble |
| MAHHHHHHSLTTSHILGFPRVGAKRELKFAQERYWRKELAEQDLLDLAKALREKNWKHQAAANADFVAVGDFTFYDHILDLQVATGAIPARFGFDSQNLTLDQYFQLARGNKDQFAIEMTKWFDTNYHYLVPEFQKSTAFKANPAHYVNQIREAKALGLNFKPVIVGPLTFLWLGKEKGEAFNRFDLLNQLVPVYVEILNALVAEGAEWIQIDEPALALDLPAEWVEAYKSVYTELSKVNAKLLLATYFGSVAEHAELLKALPVAGLHLDLVRAPEQLAAFEDYSKVLSAGVIEGRNIWRANLNKVLDVLEPLKAKLGERLWIAPSCSLLHTPFDLEVEVQLKEKNTALYSWLSFTLQKVEELNVLKQALNNGRASVQAALDASQVAADARATSKEIHRPEVAERLANLPKGADQRKSPFAERIVKQNAWLNLPLLPTTNIGSFPQTTEIRHARASFKKGELSLADYEAAMKKEIEYVVRRQEELDLDVLVHGEAERNDMVEYFGELLDGFAFTKFGWVQSYGSRCVKPPVIYGDVTRPEPMTVRWSQYAQSLTNRVMKGMLTGPVTILQWSFVRNDIPRSTVCKQIGVALSDEVLDLEAAGIKVIQIDEPAIREGLPLKRADWDAYLQWAGEAFRLSSMGVQDDTQIHTHMCYSEFNDILPAIAALDADVITIETSRSDMELLTAFADFKYPNDIGPGVYDIHSPRVPTATEVEHLLRKALNVIPKERLWVNPDCGLKTRGWTETIDQLKVMVDVTKKLRAELAEG | soluble |
| MGSDKIHHHHHHMNDPAHPPIPPVSKRDAPAFSDLQHRATSASAFTQGSTTYHDVRPGYPAEAVELARGFGRVLDVGAGTGKLTSELTADQVLALDPSMDMLRVFRSALPAVPCWQATAEHTGIRDNAVDLITCAQTWHWVDVTAASAEFDRVIAPEGAVLLVWNNLDTSIAWVHRLSRIMHAGDVLKPGFTPETAAPWIIDREIRTTWNQHLTPEEIIQLAHTRSYWLNASEKIKERVDQNLQWYLYEHLGFSPDNPVELPYRCDAFLLSRSGTLAGRSSNL | not soluble |
